The source of these data is PMC8291550.

The experiment concerns the target rat skeletal muscle sodium channel rNaV1.4 (UniProt P15390). Description: washing-out time-course analysis (electrophysiology). Particulars: read off a plot.
Chain of UniProt P15390 (P15390 whole entry): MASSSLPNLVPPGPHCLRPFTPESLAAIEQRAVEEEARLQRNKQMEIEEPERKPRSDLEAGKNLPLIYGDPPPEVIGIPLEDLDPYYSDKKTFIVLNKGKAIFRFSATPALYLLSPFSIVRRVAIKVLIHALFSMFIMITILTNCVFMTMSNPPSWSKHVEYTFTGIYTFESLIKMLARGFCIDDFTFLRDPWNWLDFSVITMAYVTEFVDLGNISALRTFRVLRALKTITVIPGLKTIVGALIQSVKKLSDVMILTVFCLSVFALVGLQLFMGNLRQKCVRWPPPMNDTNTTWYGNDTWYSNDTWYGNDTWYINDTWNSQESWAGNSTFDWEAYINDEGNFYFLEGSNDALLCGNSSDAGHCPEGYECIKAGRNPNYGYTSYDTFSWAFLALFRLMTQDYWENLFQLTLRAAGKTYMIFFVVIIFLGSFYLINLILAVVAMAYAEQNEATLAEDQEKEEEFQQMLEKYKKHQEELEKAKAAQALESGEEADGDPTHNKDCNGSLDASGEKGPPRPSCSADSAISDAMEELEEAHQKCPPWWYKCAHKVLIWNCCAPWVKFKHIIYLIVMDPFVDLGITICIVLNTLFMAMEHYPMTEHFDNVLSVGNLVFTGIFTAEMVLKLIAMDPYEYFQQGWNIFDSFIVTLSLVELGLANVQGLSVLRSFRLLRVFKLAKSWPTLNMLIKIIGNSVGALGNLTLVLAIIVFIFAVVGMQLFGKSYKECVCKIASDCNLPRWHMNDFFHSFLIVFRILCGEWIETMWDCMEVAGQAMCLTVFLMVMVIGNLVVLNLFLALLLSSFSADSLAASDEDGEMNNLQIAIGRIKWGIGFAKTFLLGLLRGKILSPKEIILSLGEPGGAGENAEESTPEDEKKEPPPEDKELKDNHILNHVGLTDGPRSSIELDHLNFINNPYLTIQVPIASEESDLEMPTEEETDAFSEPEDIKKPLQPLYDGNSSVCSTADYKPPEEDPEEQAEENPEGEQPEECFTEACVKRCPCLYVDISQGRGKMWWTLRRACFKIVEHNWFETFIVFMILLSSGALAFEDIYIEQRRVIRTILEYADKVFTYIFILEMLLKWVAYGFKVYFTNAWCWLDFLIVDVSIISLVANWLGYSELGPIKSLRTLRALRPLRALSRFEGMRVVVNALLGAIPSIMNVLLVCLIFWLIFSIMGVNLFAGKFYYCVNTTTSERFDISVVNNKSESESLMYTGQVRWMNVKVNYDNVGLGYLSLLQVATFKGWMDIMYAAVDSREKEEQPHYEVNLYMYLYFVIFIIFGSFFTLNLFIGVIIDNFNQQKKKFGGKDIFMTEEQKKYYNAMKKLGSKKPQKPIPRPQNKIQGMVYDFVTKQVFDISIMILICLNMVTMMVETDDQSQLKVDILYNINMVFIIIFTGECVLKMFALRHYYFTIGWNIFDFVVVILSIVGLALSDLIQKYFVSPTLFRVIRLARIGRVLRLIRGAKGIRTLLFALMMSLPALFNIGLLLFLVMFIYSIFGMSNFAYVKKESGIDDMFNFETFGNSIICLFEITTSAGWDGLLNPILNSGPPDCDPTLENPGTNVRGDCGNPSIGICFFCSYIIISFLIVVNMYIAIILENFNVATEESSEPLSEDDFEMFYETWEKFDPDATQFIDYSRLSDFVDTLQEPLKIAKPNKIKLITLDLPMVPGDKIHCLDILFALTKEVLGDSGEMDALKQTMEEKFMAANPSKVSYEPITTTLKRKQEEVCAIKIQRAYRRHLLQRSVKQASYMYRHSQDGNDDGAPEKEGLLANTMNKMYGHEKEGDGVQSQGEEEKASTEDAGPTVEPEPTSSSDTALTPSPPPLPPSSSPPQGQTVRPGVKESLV
BmK-M9 R54G gave an other: τoff of 1800 s.

For BmK-M9 H15G, the other: τoff was 1500 s.

In the case of BmK-M9 E32G, the other: τoff is 1800 s.

BmK-M9 K50G gave an other: τoff of 1600 s.

The substance BmK-M9 E10G had an other: τoff of 1700 s.

BmK-M9 K8G had an other: τoff of 1700 s.

Regarding BmK-M9 R2G, the other: τoff is 1300 s.

Take BmK-M9 H64G: the other: τoff amounted to 1800 s.

BmK-M9 D3G gave an other: τoff of 1900 s.

In the case of BmK-M9 E20G, the other: τoff amounted to 1600 s.

For the substance BmK-M9 Y42G, the other: τoff is 17 s.

With BmK-M9 K62G, the other: τoff stood at 8.5 s.

For the substance BmK-M9 R58G, the other: τoff amounted to 2000 s.

Substance BmK-M9 R41G displayed an other: τoff of 1700 s.

Turning to BmK-M9 D28G, the other: τoff amounted to 1800 s.

The substance BmK-M9 K24G showed an other: τoff of 1800 s.

Consider BmK-M9 D53G, for which the other: τoff is 1700 s.
